# B1: FBXO3 (parent)
# chain: DEEERRRRVFDVPIRRRRCSRLF
# B2: MFF (parent)
# chain: MAEISRIQYEMEYTEGISQRMRVP
# Variants of: B1
# Experiment: protein stability index of a GFP-peptide fusion (GPS, HEK-293T) (PSI 1-6); higher = more stable
# Details: c terminus: native
# 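Note: lentivirally expressed fusions sorted by FACS into six bins by GFP to DsRed ratio, PSI derived from sequencing read proportions per bin multiplied by bin number.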
row,Variant,protein stability index
1,R16Y,1.72
2,R17A,2.5
3,R17C,1.71
4,R17D,2.17
5,R17E,2.27
6,R17F,1.87
7,R17G,1.98
8,R17H,2.21
9,R17I,1.84
10,R17K,3.27
11,R17L,1.84
12,R17M,2.27
13,R17N,2.09
14,R17P,1.96
15,R17Q,2.5
16,R17S,1.77
17,R17T,2.82
18,R17V,2.06
19,R17W,2.83
20,R17Y,1.58
21,R18A,1.69
22,R18C,2.29

row,Variant,protein stability index
1,R18E,2.38
2,R18F,1.57
3,R18G,3.74
4,R18H,2.18
5,R18I,1.34
6,R18K,2.83
7,R18L,2.68
8,R18M,2.31
9,R18N,1.76
10,R18P,1.7
11,R18Q,1.78
12,R18S,2.26
13,R18T,1.7
14,R18V,1.83
15,R18W,2.31
16,R18Y,1.95
17,C19A,3.62
18,C19D,3.44
19,C19E,1.83
20,C19F,3.76
21,C19G,1.93
22,C19H,4.39

row,Variant,protein stability index
1,C19I,3.49
2,C19K,4.77
3,C19L,3.54
4,C19M,3.23
5,C19N,4.56
6,C19P,2.56
7,C19Q,4.39
8,C19R,4.59
9,C19S,4.15
10,C19T,3.63
11,C19V,3.22
12,C19W,3.64
13,C19Y,3.36
14,S20A,2.15
15,S20C,4.36
16,S20D,2.2
17,S20E,3.04
18,S20F,2.77
19,S20G,3.48
20,S20H,2.68
21,S20I,2.05
22,S20K,2.69

row,Variant,protein stability index
1,S20L,2.36
2,S20M,2.04
3,S20N,2.61
4,S20P,2.51
5,S20Q,2.69
6,S20R,3.35
7,S20T,1.91
8,S20V,2.06
9,S20W,2.47
10,S20Y,2.22
11,R21A,4.48
12,R21C,4.79
13,R21D,3.91
14,R21E,3.46
15,R21F,3.04
16,R21G,2.36
17,R21H,3.59
18,R21I,2.93
19,R21K,3.27
20,R21L,2.6
21,R21M,2.87
22,R21N,3.99

row,Variant,protein stability index
1,R21P,2.72
2,R21Q,3.62
3,R21S,4.35
4,R21T,3.85
5,R21V,2.98
6,R21W,2.53
7,R21Y,3.08
8,L22A,3.3
9,L22C,2.71
10,L22D,4.94
11,L22E,4.92
12,L22F,4.44
13,L22G,3.06
14,L22H,2.94
15,L22I,2.82
16,L22K,4.67
17,L22M,2.28
18,L22N,2.09
19,L22P,3.85
20,L22Q,1.55
21,L22R,3.97
22,L22S,2.17

row,Variant,protein stability index
1,L22T,2.46
2,L22V,2.12
3,L22W,3.03
4,L22Y,2.63
5,F23A,1.35
6,F23C,2.65
7,F23D,2.71
8,F23G,2.86
9,F23H,2.77
10,F23I,1.85
11,F23K,4.1
12,F23L,4.08
13,F23M,2.45
14,F23N,2.48
15,F23P,2.6
16,F23Q,2.98
17,F23R,3.91
18,F23S,1.03
19,F23T,2.4
20,F23V,3.28
21,F23W,3.56
22,F23Y,3.25

# Variants of: B2
# Experiment: as above
# Details: c terminus: a fixed tail appended
row,Variant,protein stability index
1,M1A,2.92
2,M1C,1.85
3,M1D,3.56
4,M1E,4.04
5,M1F,1.97
6,M1G,3.14
7,M1H,2.92
8,M1I,2.36
9,M1K,2.97
10,M1L,2.55
11,M1N,3.16
12,M1P,3.45
13,M1Q,3.56
14,M1R,3.1
15,M1S,3.01
16,M1T,3.28
17,M1V,2.85
18,M1W,2.35
19,M1Y,1.9
20,A2C,2.25
21,A2D,2.83
22,A2E,3.33
23,A2F,1.58
24,A2G,3.03
25,A2H,2.45
26,A2I,2.17

row,Variant,protein stability index
1,A2K,2.77
2,A2L,1.86
3,A2M,2.03
4,A2N,3.09
5,A2P,3.33
6,A2Q,2.76
7,A2R,2.54
8,A2S,2.5
9,A2T,2.74
10,A2V,1.96
11,A2W,1.51
12,A2Y,1.95
13,E3A,1.85
14,E3C,2.45
15,E3D,2.58
16,E3F,1.76
17,E3G,2.96
18,E3H,2.93
19,E3I,1.7
20,E3K,2.3
21,E3L,1.77
22,E3M,1.91
23,E3N,2.41
24,E3P,3.31
25,E3Q,2.07
26,E3R,2.39

row,Variant,protein stability index
1,E3S,1.85
2,E3T,2.07
3,E3V,1.98
4,E3W,1.57
5,E3Y,2.01
6,I4A,3.38
7,I4C,3.6
8,I4D,3.41
9,I4E,4.08
10,I4F,2.56
11,I4G,3.4
12,I4H,3.34
13,I4K,3.58
14,I4L,2.99
15,I4M,3.56
16,I4N,3.71
17,I4P,3.55
18,I4Q,3.8
19,I4R,3.31
20,I4S,3.42
21,I4T,3.86
22,I4V,2.74
23,I4W,2.89
24,I4Y,2.8
25,S5A,1.72
26,S5C,1.88

row,Variant,protein stability index
1,S5D,3.39
2,S5E,2.95
3,S5F,1.71
4,S5G,2.27
5,S5H,2.47
6,S5I,2.11
7,S5K,2.17
8,S5L,2.17
9,S5M,1.34
10,S5N,2.53
11,S5P,3.52
12,S5Q,2.36
13,S5R,2.75
14,S5T,2.02
15,S5V,2.02
16,S5W,2.46
17,S5Y,1.6
18,R6A,3.16
19,R6C,2.97
20,R6D,3.28
21,R6E,3.42
22,R6F,2.06
23,R6G,3.36
24,R6H,3
25,R6I,1.63
26,R6K,3.15

row,Variant,protein stability index
1,R6L,1.71
2,R6M,2.41
3,R6N,3.27
4,R6P,3.36
5,R6Q,3.34
6,R6S,3.37
7,R6T,2.93
8,R6V,2.03
9,R6W,1.95
10,R6Y,1.53
11,I7A,3.22
12,I7C,2.56
13,I7D,3.8
14,I7E,4.11
15,I7F,2.69
16,I7G,3.03
17,I7H,3
18,I7K,3.34
19,I7L,2.29
20,I7M,2.93
21,I7N,3.6
22,I7P,3.37
23,I7Q,3.43
24,I7R,3.33
25,I7S,3.51
26,I7T,3.4

row,Variant,protein stability index
1,I7V,2.64
2,I7W,2.02
3,I7Y,2.58
4,Q8A,2.31
5,Q8C,1.9
6,Q8D,2.85
7,Q8E,3.02
8,Q8F,1.58
9,Q8G,2.9
10,Q8H,2.47
11,Q8I,2.52
12,Q8K,2.13
13,Q8L,1.6
14,Q8M,1.94
15,Q8N,2.85
16,Q8P,3.03
17,Q8R,2.21
18,Q8S,2.71
19,Q8T,2.38
20,Q8V,1.45
21,Q8W,1.49
22,Q8Y,1.75
23,Y9A,3.31
24,Y9C,2.78
25,Y9D,3.85
26,Y9E,3.6

row,Variant,protein stability index
1,Y9F,2.11
2,Y9G,3.6
3,Y9H,3.09
4,Y9I,1.71
5,Y9K,2.95
6,Y9L,2.28
7,Y9M,2.42
8,Y9N,3.07
9,Y9P,3.57
10,Y9Q,3.35
11,Y9R,2.88
12,Y9S,3.42
13,Y9T,3.22
14,Y9V,2.15
15,Y9W,2.28
16,E10A,2.15
17,E10C,1.99
18,E10D,2.74
19,E10F,1.96
20,E10G,2.67
21,E10H,2.42
22,E10I,1.6
23,E10K,2.66
24,E10L,1.66
25,E10M,2.08
26,E10N,2.55

row,Variant,protein stability index
1,E10P,3.04
2,E10Q,2.76
3,E10R,2.05
4,E10S,2.74
5,E10T,1.99
6,E10V,1.89
7,E10W,2.72
8,E10Y,2.09
9,M11A,3.68
10,M11C,3.04
11,M11D,3.61
12,M11E,4.06
13,M11F,2.35
14,M11G,3.28
15,M11H,3.38
16,M11I,2.16
17,M11K,3.27
18,M11L,2.37
19,M11N,3.78
20,M11P,3.2

# Source: the supplement of paper PMC10567573
